From paper PMC11532496

What was measured:
[1] = biological target: non-stabilized CE1 design Env SOSIP trimer (CH505.M5.G458Y N386R without F14 and 2P) (HIV-1) (UniProt Q2N0S6); assay: SPR
[2] = biological target: CH848-d949 DE3 design Env SOSIP trimer (N408K/N442A) (HIV-1); assay: SPR

Molecule: CH235.12 Fab
- fold change of ka against CH505.M5.G458Y [1]: 2 fold

B1: DH270 lineage intermediate I5.6 Fab (Fab, V domains shown)
VH: QVQLVQSGAEVKKPGASVKVSCKASGYTFTDYYIHWVRQAPGQGLEWMGWINPNTGRTNSAQKFQGRVTMTRDTSISTAYMELSRLRSDDTAVYYCARGGWIGLYYDSSGYPNFDYWGQGTLVTVSS
VL: QSALTQPASVSGSPGQSITISCTGTSYDVGSYNLVSWYQQHPGKAPKLMIYEVSKRPSGVSNRFSGSKSGNTASLTISGLQAEDEADYYCCSYAGSSTVVFGGGTKLTVL
- fold change of ka against the unmutated CH848-d949 trimer [2]: 45 fold
